Substrate: CCCCCCCCCCCC(=O)Oc1ccc([N+](=O)[O-])cc1
Experiment: purified protein
Format: biochemical, Bacillus licheniformis
Details: 0.1-1 mM substrate, standard assay pH 7 phosphate buffer, 35 °C, 0.01% Triton X-100, 0.1% polyvinyl alcohol, DMSO

B1: MLipA (mature LipA lipase of B. licheniformis IBRL-CHS2) (Bacillus licheniformis DSM 13 = ATCC 14580) (protein)
chain: ASHNPVVMVHGIGGADYNFIGIKSYLQSQGWTSSELYAINFIDKTGNNINNAPRLSEYIKRVLNQTGASKVDIVAHSMGGANTLYYIKNLDGADKVGHVVTLGGANRLVTNTAPQNDKISYTSIYSTSDYIVLNSLSKLDGANNVQISGVSHVGLLFSSKVNALIKDGLTASGK
notes: signal peptide (residues 1-30) removed; E. coli BL21 (DE3); IMAC purified
With B1 the Km was 360 µM.
